Consider 14 molecules from US6642007 (Pfizer, dated 2003).

The term koff denotes the first-order rate constant of dissociation. A lower koff goes with slow dissociation. The Kd is the equilibrium constant for the complex coming apart. The low end stands for higher affinity, the high end for lower affinity.

Assay [1] addresses T1, biotinylated peptide Bt-AEGPPGPQG (SEQ ID NO: 14).
T1 construct: also called biotinylated peptide 040; peptide 040
T1 peptide: Biotin-AEGPPGPQG
Nature of the assay: BIAcore, biotinylated peptide SEQ ID NO: 14 on streptavidin chip. As for the experimental part:
Positive wells in the ELISA were subjected to a second round of selection on the BIAcore™ system. Wells were sought that produced antibodies having slow off rates on the BIAcore™ system as determined using BIAevaluation™ version 2.1 software (Pharmacia Biosensor, Piscataway, N.J.). Streptavidin (Pierce Chemical) at 100 μg/ml was conjugated using the Pharmacia Amine Coupling Kit (Pharmacia Biosensor) to carboxylated dextran-coated biosensor chips (Pharmacia Biosensor) at a pH 4.0 using a flow rate of 5 μl/minute for 35 minutes. Typically, 2000 RU was added. Peptide (100 ng/ml) biotinylated on residue of 1 of SEQ ID NO: 14 as set forth in the Sequence Listing, was passed over the streptavidin chip at a flow rate of 100 μl/minute for 10 seconds. Candidate supernatants containing antibody were passed over the chip (2 μl/minute for 30 seconds) and the amount of added antibody noted. The buffer was changed to HBS (HEPES buffered saline, Pharmacia Biosensor), and the dissociation rate noted for the next 80 seconds. The chip was cleaned with 0.1 N HCl for 30 seconds between each run to remove residual antibody and to clear any nonspecific binding. The off-rates were determined using BIAevaluation™ kinetic analysis software version 2.1. Clones with the slowest off rates were selected for further analysis. These clones included 9A4, 11F2, and 3H10.
Binding to antigen was evaluated on the BlAcore™ system for both the p9A4lCAT7-1 and p9A4lF-5 scFv purified gene products as follows. A streptavidin chip was loaded with biotinylated peptide of SEQ ID NO: 14 as given in Example 1 above.
A general note: In SPR one partner is held on a chip, and binding of the other changes the refractive index at the surface.

Assay [2] deals with T1, biotinylated peptide Bt-AEGPPGPQG (SEQ …). Nature of the assay: BIAcore, scFv over biotinylated peptide SEQ ID NO: 14 on streptavidin chip, dissociation 280 s. As for the experimental part:
Off-rates for the scFv constructs were measured by analysis of dissociation data obtained on the BlAcore™ system (Pharmacia Biosensor) with BlAevaluation™ version 2.1 software. To obtain the data on the BlAcore™ system, streptavidin surfaces on the BlAcore™ chips were prepared as described previously in Example 1. Biotinylated peptide (SEQ ID NO: 14) was bound to the prepared streptavidin surfaces to RU densities ranging from about 2–11 RU's/surface. The lower level of derivatization would help avoid getting erroneous off-rates that could be obtained if mass transport was an issue. Purified scFv's were injected over these surfaces to allow binding of the constructs for 60 seconds. PBS buffer alone was then substituted and the dissociation of scFv was allowed to proceed for an additional 280 sec. Off-rates were calculated from these dissociation data.

In assay [3] the target is T2, biotinylated peptide 225 (SEQ ID NO: 64) (biotinylated (position not given)).
T2 construct: Collagen-related peptide fragment on streptavidin magnetic beads
T2 peptide: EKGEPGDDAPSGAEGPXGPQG
Nature of the assay: told in words beside the Origen result.

Assay [4] deals with T3, biotinylated peptide of SEQ ID NO: 19.
T3 construct: Captured on a streptavidin biosensor chip; also called biotinylated peptide 054
T3 peptide: Biotin-GEPGDDGPS
Nature of the assay: ELISA-positive hybridoma supernatant, BIAcore over biotinylated peptide SEQ ID NO: 19 on streptavidin chip. As for the experimental part: Positive wells were subjected to a second round of selection on the BlAcore™ system for those which had antibodies giving the slowest off-rates. Streptavidin (Pierce Chemical) at 100 µg/ml was conjugated using the Pharmacia Amine Coupling Kit (Pharmacia Biosensor) to carboxylated dextran coated biosensor chips (Pharmacia Biosensor) at pH 4.0 using a flow rate of 5 µl/minute for 35 minutes. Typically, 2000 RU was added. Peptide (100 ng/ml), biotinylated on residue 1 of SEQ ID NO: 19 as set forth in the Sequence Listing, was passed over the streptavidin chip at a flow rate of 100 µl/minute for 10 seconds. Supernatants containing antibody were passed over the chip (2 µl/minute for 30 seconds) and the amount of added antibody noted. The buffer was changed to HBS (Pharmacia Biosensor), and the dissociation rate noted for the next 80 seconds. The chip was cleaned with 0.1 N HCl for 30 seconds between each run to remove antibody and to get rid of any nonspecific binding. The off-rates were determined using the BlAevaluation™ software version 2.1.

Residue numbers refer to the chain shown, from its start. No end group written: not given here. *: point of attachment. Biotin = O=C1N[C@H]2[C@H](CS[C@H]2CCCCC(=O)*)N1

B1: 9A4 scFv (VH-linker-VL-HIS-MYC tags) from p9A4ICAT7-1 (scFv)
scFv: QIQLVQSGPELKKPGETVKISCKASGYTFTDYSIHWVKQAPGKGLKWMGWINTETGEPTYADDFKGRFAFSLETSASTAYLQINNLKNEDTATYFCARGGSLDYWGQGTTLTVSSGGGGSGGGGSGGGGSQIVLTQSPVFMSASPGEKVTMTCSASSSVSYMYWYQQKPGSSPRLLIHATSNLASGVPVRFSGGGSGTSYSLTISRMEAEDAATYYCQQWRSYTRTFGGGTKLEIIAAAHHHHHHGAAEQKLISEEDLNGAA
notes: Monomer purified from E. coli TG1; also called 9A4ICAT7-1 scFv; p9A4lCAT7-1
B1: the values for the koff in assay [1] and in assay [2] were 0.0012 s⁻¹ and 0.003 s⁻¹, respectively.

B2: 9A4 scFv CDR3 VH mutant clone 18E (scFv)
scFv: B1 scFv with Y104V
notes: Derived from p9A4ICAT7-1
With B2, the koff in assay [2] came to 0.014 s⁻¹.

B3: 9A4 scFv CDR3 VH mutant clone 24A (scFv)
scFv: B1 scFv with A97G, D103E
notes: Derived from p9A4ICAT7-1
Take B3: the koff in assay [2] was 0.0025 s⁻¹.

B4: 9A4 scFv CDR3 VH mutant clone 15A (scFv)
scFv: B1 scFv with S101R
notes: Derived from p9A4ICAT7-1
With B4, in assay [2], the koff came to 0.0035 s⁻¹. This koff and that of the molecule before are within 1.5-fold of each other.

B5: 9A4 scFv CDR3 VH mutant clone 13G (scFv)
scFv: B1 scFv with A97G, Y104N
notes: Derived from p9A4ICAT7-1
As to B5, the koff in assay [2] stood at 0.0103 s⁻¹. Against the preceding molecule, the koff is about 2.9-fold higher.

B6: 9A4 scFv CDR3 VH mutant clone 8D (scFv)
scFv: B1 scFv with Y104N
notes: Derived from p9A4ICAT7-1
The molecule B6 registered a koff in assay [2] of 0.0104 s⁻¹.

B7: 9A4 scFv CDR3 VH mutant clone 38B (scFv)
scFv: B1 scFv with A97G, Y104S, W105C
notes: Derived from p9A4ICAT7-1
The molecule B7 displayed a koff in assay [2] of 0.0026 s⁻¹.

B8: 9A4 scFv CDR3 VH mutant clone 5C (scFv)
scFv: B1 scFv with Y104S
notes: Derived from p9A4ICAT7-1
Turning to B8, the koff in assay [2] was found to be 0.0025 s⁻¹.

B9: 9A4 scFv CDR3 VH mutant clone 10C (scFv)
scFv: B1 scFv with A97G, W105C
notes: Derived from p9A4ICAT7-1
In assay [2], B9 came in with a koff of 0.0094 s⁻¹.

B10: 9A4 scFv CDR3 VH mutant clone 14B (scFv)
scFv: B1 scFv with Y104H
notes: Derived from p9A4ICAT7-1
On to B10, for which the koff in assay [2] is 0.0027 s⁻¹. Against the preceding molecule, the koff is about 3.5-fold lower.

B11: 9A4 scFv CDR3 VH mutant clone 20B (scFv)
scFv: B1 scFv with A97G, S101N, Y104H, W105C
notes: Derived from p9A4ICAT7-1
In assay [2], B11 showed a koff of 0.0028 s⁻¹. The koff values of the last two molecules are within 1.5-fold of each other.

B12: 9A4 scFv (VL-linker-VH-FLAG tag) from p9A4IF-5 (scFv)
scFv: QIVLTQSPVFMSASPGEKVTMTCSASSSVSYMYWYQQKPGSSPRLLIHATSNLASGVPVRFSGGGSGTSYSLTISRMEAEDAATYYCQQWRSYTRTFGGGTKLEIILSADDAKKDAAKKDDAKKDDAKKDLEIQLVQSGPELKKPGETVKISCKASGYTFTDYSIHWVKQAPGKGLKWMGWINTETGEPTYADDFKGRFAFSLETSASTAYLQINNLKNEDTATYFCARGGSLDYWGQGTTLTVSSASDYKDDDDK
notes: Monomer purified from E. coli; also called 9A4IF-5 scFv; p9A4lF-5
As to B12, binding in assay [1] was characterised by a dissociation constant (Kd) of 110 nM. The molecule further had a koff in assay [2] of 0.0048 s⁻¹.

B13: monoclonal antibody 9A4 (antibody, V domains shown)
VH: QIQLVQSGPELKKPGETVKISCKASGYTFTDYSIHWVKQAPGKGLKWMGWINTETGEPTYADDFKGRFAFSLETSASTAYLQINNLKNEDTATYFCARGGSLDYWGQGTTLTVSS
VL: QIVLTQSPVFMSASPGEKVTMTCSASSSVSYMYWYQQKPGSSPRLLIHATSNLASGVPVRFSGGGSGTSYSLTISRMEAEDAATYYCQQWRSYTRTFGGGTKLEIIR
notes: also called mAb 9A4; 9A4 IgG
In assay [1], B13 came in with a Kd of 120 nM and a koff of 0.0176 s⁻¹.

B14: monoclonal antibody 5109 (antibody, V domains shown)
VH: EVQLVESGGGSVQPGGSLKLSCAASGFTFNTYGMSWVRQTPDKRLEWVATINSNGGLTFYADSVKGRFTISRDNAKNTLYLQMNRLKSGDSGMYYCVRGYSNYARWGQGALVTVSA
VL: DVVMTQTPLTLSVTIGQSASISCKSSQSLLGSDGLTYLIWLLQRPGQSPKRLIFLVSELDSGVPDRFTGSGSGTDFTLKISRVEAEDLGVYYCCQGTHFPHTFGAGTKLELK
As to B14, the binding result in assay [3] and in assay [4] was “binds” in each case.
